Test results from patent publication US6512004B2, “Promoters of neural regeneration” (The Regents of the University of California, priority 1998, dated 2003).

System: growth cones of Xenopus spinal neurons
Assay: Growth cone turning in gradients of purified MAG or purified myelin
Format: cell-based
Details: purified MAG 150 μg/ml, purified myelin 25 μg/ml in the pipette; with or without Sp-cAMPS, 8-br-cGMP, low Ca2+
Experimental: FIG. 5. Growth cone turning induced by purified myelin. A gradient of purified myelin (25 μg/ml in the pipette) was applied in normal culture medium (open circles), in medium containing Sp-cAMPS (20 μM, solid circles), or 8-br-cGMP (100 μM, solid squares). Isolated symbols along the abscissa are median values for corresponding data shown above.
FIGS. 6A, 6B. Effects of purified myelin-associated glycoprotein (MAG) on growth cones of Xenopus spinal neurons. A gradient of purified MAG (150 μg/ml in the pipette) was applied in normal culture medium (open circles), in medium containing Sp-cAMPS (20 μM, solid circles), or in medium containing 8-br-cGMP (100 μM, solid squares). (A) Shown are distributions of turning angles under different conditions. Isolated symbols along the abscissa are median values for corresponding data shown above. (B) Shown are distributions of net neurite extension in the gradient under different conditions.
FIGS. 7A, 7B. Effects of reducing external Ca^2+. (A) Purified MAG-induced turning depends on [Ca^2+]o. Shown are distributions of turning angles in normal medium in the absence (solid circles) or presence of Sp-cAMPS (20 μM, solid squares), and in medium containing 1 μM [Ca^2+]o in the absence (open circles) or presence of Sp-cAMPS (20 μM, open squares), respectively. […]
8. […] Only growth cones with a net extension >5 μm over the one-hour period were scored.

B1: purified myelin-associated glycoprotein (MAG): Native MAG purified from myelin after extraction in 1% octylglucoside and DEAE-Sepharose separation (protein, UniProt P07722 20-626, looked up)
Myelin-associated glycoprotein: GHWGAWMPSSISAFEGTCVSIPCRFDFPDELRPAVVHGVWYFNSPYPKNYPPVVFKSRTQVVHESFQGRSRLLGDLGLRNCTLLLSTLSPELGGKYYFRGDLGGYNQYTFSEHSVLDIINTPNIVVPPEVVAGTEVEVSCMVPDNCPELRPELSWLGHEGLGEPTVLGRLREDEGTWVQVSLLHFVPTREANGHRLGCQAAFPNTTLQFEGYASLDVKYPPVIVEMNSSVEAIEGSHVSLLCGADSNPPPLLTWMRDGMVLREAVAESLYLDLEEVTPAEDGIYACLAENAYGQDNRTVELSVMYAPWKPTVNGTVVAVEGETVSILCSTQSNPDPILTIFKEKQILATVIYESQLQLELPAVTPEDDGEYWCVAENQYGQRATAFNLSVEFAPIILLESHCAAARDTVQCLCVVKSNPEPSVAFELPSRNVTVNETEREFVYSERSGLLLTSILTLRGQAQAPPRVICTSRNLYGTQSLELPFQGAHRLMWAKIGPVGAVVAFAILIAIVCYITQTRRKKNVTESPSFSAGDNPHVLYSPEFRISGAPDKYESEKRLGSERRLLGLRGEPPELDLSYSHSDLGKRPTKDSYTLTEELAEYAEIRVK
- growth cone turning induced by the purified factor and its modulation: results similar to those with rMAG
